Results from publication PMC5155689, “Pro-invasive Effect of Proto-oncogene PBF Is Modulated by an Interaction with Cortactin” (The Journal of Clinical Endocrinology and Metabolism, 2016).

Molecular target: T1, Y174A PBF-HA (UniProt P53801 33-180, Y174A)
T1 construct: also called PBF mutant Y174A; phospho-null PBF mutant (Y174A)
T1 sequence (looked up): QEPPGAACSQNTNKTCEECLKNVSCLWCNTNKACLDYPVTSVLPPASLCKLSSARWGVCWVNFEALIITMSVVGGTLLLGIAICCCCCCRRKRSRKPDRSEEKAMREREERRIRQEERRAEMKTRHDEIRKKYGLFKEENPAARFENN
Assay: co-IP; myc-tagged CTTN and HA-tagged PBF (WT or Y174A) transfected in MCF-7 and HeLa cells; in HeLa also after 50 nM dasatinib or vehicle
Settings: partners not purified

- fold change of binding against WT PBF: > 2 fold
B1: human Myc-CTTN (cortactin) (natural protein, UniProt Q14247 1-550, looked up)
chain: MWKASAGHAVSIAQDDAGADDWETDPDFVNDVSEKEQRWGAKTVQGSGHQEHINIHKLRENVFQEHQTLKEKELETGPKASHGYGGKFGVEQDRMDKSAVGHEYQSKLSKHCSQVDSVRGFGGKFGVQMDRVDQSAVGFEYQGKTEKHASQKDYSSGFGGKYGVQADRVDKSAVGFDYQGKTEKHESQRDYSKGFGGKYGIDKDKVDKSAVGFEYQGKTEKHESQKDYVKGFGGKFGVQTDRQDKCALGWDHQEKLQLHESQKDYKTGFGGKFGVQSERQDSAAVGFDYKEKLAKHESQQDYSKGFGGKYGVQKDRMDKNASTFEDVTQVSSAYQKTVPVEAVTSKTSNIRANFENLAKEKEQEDRRKAEAERAQRMAKERQEQEEARRKLEEQARAKTQTPPVSPAPQPTEERLPSSPVYEDAASFKAELSYRGPVSGTEPEPVYSMEAADYREASSQQGLAYATEAVYESAEAPGHYPAEDSTYDEYENDLGITAVALYDYQAAGDDEISFDPDDIITNIEMIDDGWWRGVCKGRYGLFPANYVELRQ
notes: cortactin (CTTN), human; Origene plasmid No. RC223259; the isoform of the clone follows from the catalogue number; also called myc-tagged CTTN; source: plasmid bought: Origene
